Test [1] deals with IgG. The test can be described thus: affinity precipitation: C12-VVEE to binding molecule 50:1, binding molecule to IgG 10:2, 1 M ammonium sulfate.
Test [2] addresses IgG. Kind of test: affinity precipitation: C12-VVEE to binding molecule 50:1, binding molecule to IgG 10:1, 1 M ammonium sulfate.
Test [3] addresses IgG. Kind of test: affinity precipitation: co-assembled with C12-VVEE at 10:1, binding molecule to IgG 10:1, 1 M ammonium sulfate, IgG in the supernatant by ProA column.
The target in test [4] is therapeutic human IgG1 (human). The test can be described thus: affinity precipitation: 5 mM C12-Z33 with 20 µM IgG1, 0.6 M Na2SO4, absorbance of the supernate at 280 nm.
The target in test [5] is therapeutic human IgG1 (human). Kind of test: ITC, 15 °C, PBS pH 7.4, reported per IgG1. (ITC needs no label: the signal is the heat of the interaction.)
For test [6], the target named is therapeutic human IgG1 (human). Kind of test: ITC, 15 °C, PBS pH 7.4, reported per ligand.

In general, pKd refers to the Kd on a negative log10 scale, so that one unit is a factor of ten.

pKd: −log10 of the molar value.

With “C12-VVKKGG-Z33 binding molecule (peptide)”, the IgG precipitation yield in test [1] is 75%; in test [2] it was 99%. In addition, the IgG precipitated out from the solution in test [3] came to 30%.
Substance “C12-Z33 immuno-amphiphile (self-assembled immunofibers) (peptide)” came in with an IgG1 removed from the supernate in test [4] of over 60%.
As to Z33 peptide, in test [5], the -TΔS° turned out to be 43.4 kcal/mol, the ΔG° is -10 kcal/mol and the ΔH° was -53.4 kcal/mol. In test [6], this substance gave a -TΔS° of 13.6 kcal/mol, a negative-log Kd (pKd) of 7.22, a ΔG° of -9.5 kcal/mol and a ΔH° of -23.1 kcal/mol.

Source of the values: US20240082816A1.
